In US20250312491A1, “BASE EDITING OF TRANSTHYRETIN GENE” (Beam Therapeutics Inc., priority 2022, published 2025):
Oligonucleotides are written 5' to 3', each unit as a sugar letter and its base; * is a phosphorothioate linkage, no mark a phosphodiester; rarer units and linkages stand in square brackets, end groups in braces. Plain capitals give the bases only. m = 2'-O-methyl; r = 2'-OH (RNA)

Experiments:
[1] = target: T1, Asialoglycoprotein receptor (ASGP-R) (Homo sapiens, UniProt P07306); conditions: ligand: N-acetylgalactosamine (GalNAc); cited from earlier work
T1 sequence (P07306 1-291): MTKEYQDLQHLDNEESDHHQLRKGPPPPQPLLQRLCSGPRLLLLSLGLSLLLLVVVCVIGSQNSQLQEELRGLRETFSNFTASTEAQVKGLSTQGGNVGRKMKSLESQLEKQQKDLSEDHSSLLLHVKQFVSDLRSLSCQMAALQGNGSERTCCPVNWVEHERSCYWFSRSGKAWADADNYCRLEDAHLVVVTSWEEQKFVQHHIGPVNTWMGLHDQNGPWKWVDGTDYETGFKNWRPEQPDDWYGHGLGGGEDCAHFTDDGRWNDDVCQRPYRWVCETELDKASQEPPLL
T1 sequence (P07307 1-311 partner): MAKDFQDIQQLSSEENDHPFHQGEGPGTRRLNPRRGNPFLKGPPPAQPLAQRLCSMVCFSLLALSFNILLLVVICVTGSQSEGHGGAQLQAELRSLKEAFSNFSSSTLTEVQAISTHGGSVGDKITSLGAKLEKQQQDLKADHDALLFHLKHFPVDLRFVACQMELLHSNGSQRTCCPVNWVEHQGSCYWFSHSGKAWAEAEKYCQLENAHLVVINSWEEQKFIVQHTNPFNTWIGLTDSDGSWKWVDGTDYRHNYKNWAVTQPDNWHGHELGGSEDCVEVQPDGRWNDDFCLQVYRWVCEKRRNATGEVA

[2] = system: cynomolgus monkey TTR gene; test: Base editing in primary cynomolgus hepatocytes transfected with gRNA and ABE8.8 mRNA, NGS; assay type: cell-based; conditions: for Cyno hepatocytes- Editing % 156.25: 156.25 ng/RNA/mL; for Cyno hepatocytes- Editing % 312.5: 312.5 ng/RNA/mL; for Cyno hepatocytes- Editing % 625: 625 ng/RNA/mL; for Cyno hepatocytes- Editing % 1250: 1250 ng/RNA/mL; for Cyno hepatocytes- Editing % 2500: 2500 ng/RNA/mL; for Cyno hepatocytes- Editing % 5000: 5000 ng/RNA/mL; for editing activity in cynomolgus primary hepatocytes (in words): ABE8.8 mRNA co-transfection
Description: (§1) The mRNA, and corresponding amino acid, sequence of the ABE8.8 (MA004) used in shown below in Table 11. Three days after transfection, genomic DNA was harvested from the hepatocytes, and assessed for base editing with next-generation sequencing of PCR amplicons generated around the target splice site. […] See FIGS. 5A-5C, FIG. 6, and Tables 2-3.

[3] = system: human TTR gene; test: Base editing in primary human hepatocytes co-transfected with gRNA and ABE8.8 mRNA, NGS; assay type: cell-based; conditions: for Human hepatocytes- Editing % 625, rep 1 / Human hepatocytes- Editing % 625, rep 2: 625 ng/RNA/mL; for Human hepatocytes- Editing % 625, rep 1 / Human hepatocytes- Editing % 1250, rep 1 / Human hepatocytes- Editing % 2500, rep 1: rep 1, 3 days after transfection; for Human hepatocytes- Editing % 625, rep 2 / Human hepatocytes- Editing % 1250, rep 2 / Human hepatocytes- Editing % 2500, rep 2: rep 2, 3 days after transfection; for Human hepatocytes- Editing % 1250, rep 1 / Human hepatocytes- Editing % 1250, rep 2: 1250 ng/RNA/mL; for Human hepatocytes- Editing % 2500, rep 1 / Human hepatocytes- Editing % 2500, rep 2: 2500 ng/RNA/mL; for editing activity in human primary hepatocytes (in words): ABE8.8 mRNA co-transfection
Description: With this example, gRNA sequences were identified that permit ABE8.8 (and other ABE variants containing Streptococcus pyogenes Cas9, such as ABE7.10, or another Cas protein that can use the NGG PAM) to either: 1) disrupt the start codon, or 2) disrupt splice sites, whether donors or acceptors, via A→G editing within its editing window (roughly positions 4 to 7 in the 20-nt protospacer region of DNA). Five sequences were identified throughout the human TTR gene (Table 1). gRNAs were synthesized matching each of the protospacer sequences and otherwise conforming to the standard 100-nt Streptococcus pyogenes CRISPR gRNA sequence, with each gRNA molecule having a minimal degree of chemical modifications (specified in Table 1).
as §1

[4] = system: TTR on-target site; test: Off-target validation in human primary hepatocytes: on-target site editing; assay type: cell-based; conditions: for on-target site editing efficiency (in words): treated vs control groups, human primary hepatocytes
Description: (§2) Several candidate off-target sites were analyzed for off-target editing in human primary hepatocytes.

[5] = system: candidate off-target sites; test: Off-target validation in human primary hepatocytes: candidate off-target site editing; assay type: cell-based
Description: With a view towards establishing the safety of a base-editing therapy knocking down of TTR in the human liver in vivo, off-target mutagenesis analysis is assessed in primary human hepatocytes. […] The in vitro biochemical assay ONE-seq was used to generate a list of candidate off-target sites and to determine the propensity of a ribonucleoprotein comprising the ABE8.8 base editor protein and each of the three protospacer guides sequences (GA457, GA460, and GA461) to cleave oligonucleotides in a library.
For each site, the total number of edited reads was normalized to the total number of edited reads assigned to the on-target site, and this ratio defines the ONE-seq score for the site. Sites were ranked by ONE-seq score, and those with a score equal to or larger than 0.001, were selected for validation. A score equal to or larger than 0.001 encompasses sites that have down to 1000-fold less editing activity in the biochemical assay compared to editing of the on-target site. This threshold is based on the premise that in cells, if there is 100% on-target editing, 1/1000-fold less editing activity would translate to <0.1% off-target editing, which falls below the lower limit of detection of editing by NGS.
as §2

[6] = system: TTR gene; test: GA521 dose response base editing in primary human hepatocytes, NGS; assay type: cell-based; conditions: MessengerMax transfection, various doses total RNA (ng/ml), 3 days
Description: Exemplary guide RNA GA521 was transfected into primary human hepatocytes using MessengerMax transfection. GA521 disrupts the start codon AUG of the TTR gene by editing it to ACG with an A-to-G base editor (e.g., ABE8.8; ABE8.8-m).
Three days after transfection, genomic DNA was harvested from the hepatocytes, and assessed for base editing with next-generation sequencing of PCR amplicons generated around the target splice site.
FIG. 29 depicts dose response for human gRNA GA521 in primary human hepatocytes. Percent base editing at various doses (ng/ml) total RNA was determined from NGS analysis. GA521 was the guide RNA.

[7] = GA459 On-target GCAACTTACCCAGAGGCAAA
[8] = GA460 On-target TATAGGAAAACCAGTGAGTC
[9] = GA457 site OT29 GACATCCTGTCAAGGATCAG
[10] = GA457 site OT31 GCCATAAGCCAAAGAATGAC

Molecule	Cyno hepatocytes- Editing % 156.25 [2] [%]	Cyno hepatocytes- Editing % 312.5 [2] [%]	Cyno hepatocytes- Editing % 625 [2] [%]	Cyno hepatocytes- Editing % 1250 [2] [%]	Cyno hepatocytes- Editing % 2500 [2] [%]	Cyno hepatocytes- Editing % 5000 [2] [%]	editing activity in cynomolgus primary hepatocytes (in words) [2]	Human hepatocytes- Editing % 625, rep 1 [3] [%]	Human hepatocytes- Editing % 625, rep 2 [3] [%]	Human hepatocytes- Editing % 1250, rep 1 [3] [%]	Human hepatocytes- Editing % 1250, rep 2 [3] [%]	Human hepatocytes- Editing % 2500, rep 1 [3] [%]	Human hepatocytes- Editing % 2500, rep 2 [3] [%]	on-target site editing efficiency (in words) [4]	off-target editing at candidate off-target sites (in words) ([5]; human primary hepatocytes)	editing activity in human primary hepatocytes (in words) [3]	further results
CC(=O)NC1O[C@H](CO)[C@H](O)[C@H](O)[C@H]1O (stereo partly drawn) [N-Acetyl-D-Galactosylamine]																	affinity for ASGP-R relative to D-Gal [1]: 50 fold
GA458: guide RNA, cyno TTR, protospacer GCCATCCTGCCAAGAACGAG (SEQ ID NO: 28), gRNA SEQ ID NO: 29; cynomolgus equivalent of GA457 (nucleic acid) guide: mG*mC*mC*rArUrCrCrUrGrCrCrArArGrArArCrGrArGrGrUrUrUrUrArGrArGrCrUrArGrArArArUrArGrCrArArGrUrUrArArArArUrArArGrGrCrUrArGrUrCrCrGrUrUrArUrCrArArCrUrUrGrArArArArArGrUrGrGrCrArCrCrGrArGrUrCrGrGrUrGrCrU*mU*mU*mU	6.06	10.65	16.07	22.74	27.25	35.91	high editing activity										
GA459: guide RNA, human TTR, protospacer GCAACTTACCCAGAGGCAAA (SEQ ID NO: 25), gRNA SEQ ID NO: 13 (nucleic acid, chemistry not given here) guide: GCAACTTACCCAGAGGCAAAGTTTTAGAGCTAGAAATAGCAAGTTAAAATAAGGCTAGTCCGTTATCAACTTGAAAAAGTGGCACCGAGTCGGTGCTTTT								3.79	3.89	5.46	6.15	8.5	8.69	high editing efficiency	little to no off-target editing		SUM Editing %-Human Primary Hepatocytes Treat rep 1 [4, 7]: 14.17%; SUM Editing %-Human Primary Hepatocytes Treat rep 2 [4, 7]: 14.29%
GA460: guide RNA, human/cyno TTR, protospacer TATAGGAAAACCAGTGAGTC (SEQ ID NO: 26), gRNA SEQ ID NO: 14 (nucleic acid, chemistry not given here) guide: TATAGGAAAACCAGTGAGTCGTTTTAGAGCTAGAAATAGCAAGTTAAAATAAGGCTAGTCCGTTATCAACTTGAAAAAGTGGCACCGAGTCGGTGCTTTT	1.62	11.22	18.44	31.71	38.25	40.16	high editing activity	23.77	22.27	38.33	35.8	47.61	47.79	high editing efficiency	little to no off-target editing	high editing activity	SUM Editing %-Human Primary Hepatocytes Treat rep 1 [4, 8]: 76.4%; SUM Editing %-Human Primary Hepatocytes Treat rep 2 [4, 8]: 74.3%
GA457: guide RNA, human TTR, protospacer GCCATCCTGCCAAGAATGAG (SEQ ID NO: 24), gRNA SEQ ID NO: 11 (nucleic acid, chemistry not given here) guide: GCCATCCTGCCAAGAATGAGGTTTTAGAGCTAGAAATAGCAAGTTAAAATAAGGCTAGTCCGTTATCAACTTGAAAAAGTGGCACCGAGTCGGTGCTTTT								17.24	15.39	26.49	24.86	33.96	31.31	high editing efficiency		high editing activity	% Editing-human primary hepatocytes Treated ([4]; GA457 On-target GCCATCCTGCCAAGAATGAG): 54.21%; % Editing-human primary hepatocytes Net ([4]; GA457 On-target GCCATCCTGCCAAGAATGAG, treated minus untreated): 54.1%; net editing at all off-target sites ([5]; 47 candidate off-target sites, human primary hepatocytes): less than 0.4%; % Editing-human primary hepatocytes Net ([5]; GA457 site OT3 GCCATACCTGCCATGAATGAG): 0.01%; % Editing-human primary hepatocytes Net [5, 9]: 0.05%; % Editing-human primary hepatocytes Treated [5, 9]: 0.21%; % Editing-human primary hepatocytes Net [5, 10]: 0.09%; % Editing-human primary hepatocytes Treated [5, 10]: 0.09%
GA521: modified guide RNA, human TTR, GA457 spacer with 2′-O-methyl modified tracr, SEQ ID NO: 11 (nucleic acid, chemistry not fully specified) guide: GCCATCCTGCCAAGAATGAGGTTTTAGAGCTAGAAATAGCAAGTTAAAATAAGGCTAGTCCGTTATCAACTTGAAAAAGTGGCACCGAGTCGGTGCTTTT																	percent base editing in primary human hepatocytes [6]: greater than 40%
GA461: guide RNA, human/cyno TTR, protospacer TACTCACCTCTGCATGCTCA (SEQ ID NO: 27), gRNA SEQ ID NO: 15 (nucleic acid, chemistry not given here) guide: TACTCACCTCTGCATGCTCAGTTTTAGAGCTAGAAATAGCAAGTTAAAATAAGGCTAGTCCGTTATCAACTTGAAAAAGTGGCACCGAGTCGGTGCTTTT	0.07	7.45	13.16	19.46	29.8	37.53	high editing activity	21.81	22.31	32.82	32.38	40.42	39.43	high editing efficiency	little to no off-target editing	high editing activity	SUM Editing %-Human Primary Hepatocytes Treat rep 2 ([4]; GA461 On-target TACTCACCTCTGCATGCTCA): 58.9%
